Measurements as given in publication PMC5986797, “Laminin heparin-binding peptides bind to several growth factors and enhance diabetic wound healing” (Nature Communications, 2018).

B1: FGF-7: fibroblast growth factor, PeproTech (protein)
chain: CNDMTPEQMATNVNCSSPERHTRSYDYMEGGDIRVRRLFCRTQWYLRIDKRGKVKGTQEMKNNYNIMEIRTVAVGIVAIKGVESEFYLAMNKEGKLYAKKECNEDCNFKELILENHYNTYASAKWTHNGGEMFVALNQKGIPVRGKKTKKEQKTAHFLPMAIT
B2: PDGF-CC: platelet-derived growth factor, PeproTech (protein)
chain: VVDLNLLTEEVRLYSCTPRNFSVSIREELKRTDTIFWPGCLLVKRCGGNCACCLHNCNECQCVPSKVTKKYHEVLQLRPKTGVRGLHKSLTDVALEHHEECDCVCRGSTGG
B3: PlGF-1: placental growth factor, PeproTech (protein)
chain: LPAVPPQQWALSAGNGSSEVEVVPFQEVWGRSYCRALERLVDVVSEYPSEVEHMFSPSCVSLLRCTGCCGDENLHCVPVETANVTMQLLKIRSGDRPSYVELTFSQHVRCECRPLREKMKPERCGDAVPRR
B4: PlGF-2: placental growth factor (PlGF)-2, PeproTech (protein)
chain: LPAVPPQQWALSAGNGSSEVEVVPFQEVWGRSYCRALERLVDVVSEYPSEVEHMFSPSCVSLLRCTGCCGDENLHCVPVETANVTMQLLKIRSGDRPSYVELTFSQHVRCECRPLREKMKPERRRPKGRGKRRREKQRPTDCHLCGDAVPRR
B5: FGF-10: fibroblast growth factor, PeproTech (protein)
chain: QALGQDMVSPEATNSSSSSFSSPSSAGRHVRSYNHLQGDVRWRKLFSFTKYFLKIEKNGKVSGTKKENCPYSILEITSVEIGVVAVKAINSNYYLAMNKKGKLYGSKEFNNDCKLKERIEENGYNTYASFNWQHNGRQMYVALNGKGAPRRGQKTRRKNTSAHFLPMVVHS
B6: BMP-3: bone morphogenetic protein, PeproTech (protein)
chain: QWIEPRNCARRYLKVDFADIGWSEWIISPKSFDAYYCSGACQFPMPKSLKPSNHATIQSIVRAVGVVPGIPEPCCVPEKMSSLSILFFDENKNVVLKVYPNMTVESCACR
B7: BDNF: brain-derived neurotrophic factor, PeproTech (protein, UniProt P23560 19-247, looked up)
Neurotrophic factor BDNF …: APMKEANIRGQGGLAYPGVRTHGTLESVNGPKAGSRGLTSLADTFEHVIEELLDEDQKVRPNEENNKDADLYTSRVMLSSQVPLEPPLLFLLEEYKNYLDAANMSMRVRRHSDPARRGELSVCDSISEWVTAADKKTAVDMSGGTVTVLEKVPVSKGQLKQYFYETKCNPMGYTKEGCRGIDKRHWNSQCRTTQSYVRALTMDSKKRIGWRFIRIDTSCVCTLTIKRGR
B8: BMP-7: bone morphogenetic protein, PeproTech, produced in eukaryotic cells (protein)
chain: STGSKQRSQNRSKTPKNQEALRMANVAENSSSDQRQACKKHELYVSFRDLGWQDWIIAPEGYAAYYCEGECAFPLNSYMNATNHAIVQTLVHFINPETVPKPCCAPTQLNAISVLYFDDSSNVILKKYRNMVVRACGCH
B9: FGF-6: fibroblast growth factor, PeproTech (protein)
chain: SPAGTRANNTLLDSRGWGTLLSRSRAGLAGEIAGVNWESGYLVGIKRQRRLYCNVGIGFHLQVLPDGRISGTHEENPYSLLEISTVERGVVSLFGVRSALFVAMNSKGRLYATPSFQEECKFRETLLPNNYNAYESDLYQGTYIALSKYGRVKRGSKVSPIMTVTHFLPRI
B10: LAMA4_826–1816: laminin alpha 4 LG domain recombinant protein (R&D Systems) (protein)
chain: RSVASKIQVSMMFDGQSAVEVHSRTSMDDLKAFTSLSLYMKPPVKRPELTETADQFILYLGSKNAKKEYMGLAIKNDNLVYVYNLGTKDVEIPLDSKPVSSWPAYFSIVKIERVGKHGKVFLTVPSLSSTAEEKFIKKGEFSGDDSLLDLDPEDTVFYVGGVPSNFKLPTSLNLPGFVGCLELATLNNDVISLYNFKHIYNMDPSTSVPCARDKLAFTQSRAASYFFDGSGYAVVRDITRRGKFGQVTRFDIEVRTPADNGLILLMVNGSMFFRLEMRNGYLHVFYDFGFSGGPVHLEDTLKKAQINDAKYHEISIIYHNDKKMILVVDRRHVKSMDNEKMKIPFTDIYIGGAPPEILQSRALRAHLPLDINFRGCMKGFQFQKKDFNLLEQTETLGVGYGCPEDSLISRRAYFNGQSFIASIQKISFFDGFEGGFNFRTLQPNGLLFYYASGSDVFSISLDNGTVIMDVKGIKVQSVDKQYNDGLSHFVISSVSPTRYELIVDKSRVGSKNPTKGKIEQTQASEKKFYFGGSPISAQYANFTGCISNAYFTRVDRDVEVEDFQRYTEKVHTSLYECPIESSPLFLLHKKGKNLSKPKASQNKKGGKSKDAPSWDPVALKLPERNTPRNSHCHLSNSPRAIEHAYQYGGTANSRQEFEHLKGDFGAKSQFSIRLRTRSSHGMIFYVSDQEENDFMTLFLAHGRLVYMFNVGHKKLKIRSQEKYNDGLWHDVIFIRERSSGRLVIDGLRVLEESLPPTEATWKIKGPIYLGGVAPGKAVKNVQINSIYSFSGCLSNLQLNGASITSASQTFSVTPCFEGPMETGTYFSTEGGYVVLDESFNIGLKFEIAFEVRPRSSSGTLVHGHSVNGEYLNVHMKNGQVIVKVNNGIRDFSTSVTPKQSLCDGRWHRITVIRDSNVVQLDVDSEVNHVVGPLNPKPIDHREPVFVGGVPESLLTPRLAPSKPFTGCIRHFVIDGHPVSFSKAALVSGAVS
B11: LAMA3_2928–3150: recombinant human LAMA3 LG domain Ser2928-Cys3150 (linker domain and LG4 domain), 6 His, HEK-293F (protein)
chain: SLNKPPFLMLLKGSTRFNKTKTFRINQLLQDTPVASPRSVKVWQDACSPLPKTQANHGALQFGDIPTSHLLFKLPQELLKPRSQFAVDMQTTSSRGLVFHTGTKNSFMALYLSKGRLVFALGTDGKKLRIKSKEKCNDGKWHTVVFGHDGEKGRLVVDGLRAREGSLPGNSTISIRAPVYLGSPPSGKPKSLPTNSFVGCLKNFQLDSKPLYTPSSSFGVSSC
modifications: left off: His6, N-terminal, state not stated
notes: recombinant human LAMA3 LG domain Ser2928-Cys3150 (linker domain and LG4 domain), 6 His, HEK-293F

System: recombinant human laminin isoforms (–111, –211, –332, –411, –421, –511, and –521)
Assay: ELISA: binding of full-length laminin isoforms to absorbed GFs and CXCL chemokines
Conditions: 50 nM GF coated, 10 nM laminin; signals greater than 0.1 indicate binding; n = 4
Protocol: Ninety-six-well ELISA plates (med-binding, Greiner Bio-One) were coated with 50 nM GFs in 100 µL/well of phosphate-buffered saline (PBS) at 37 °C for more than 2 h. After blocking with 2% BSA solution containing PBS and 0.05% Tween 20 (PBS-T), 10 nM recombinant human laminin isoforms (–111, –211, –332, –411, –421, –511, and –521) (>95% purity tested by SDS-PAGE, BioLamina) in 100 µL/well PBS were added. Bound laminin was detected with 100 µL/well rabbit anti-human LAMC1 polyclonal antibody (Assay Biotech, Catalog No. C13072, 1:1000 dilution in PBS) or rabbit anti-human LAMA3 polyclonal antibody (Assay Biotech, Catalog No. C13066, 1:1000 dilution in PBS). After incubation with biotinylated anti-rabbit antibody for 60 min at room temperature (RT), HRP-conjugated streptavidin (Jackson ImmunoResearch) was added. After 60 min of incubation at RT, 50 μL of TMB substrate (Sigma-Aldrich) was added. The reactions were stopped by adding 25 μL of 2 N H2SO4. Subsequently, the absorbance at 450 nm was measured with a reference of 570 nm.

**Q.** With B1 as the molecule, how does the “binding to all tested laminin isoforms (ELISA, A450 nm)” value (shortened to “binding to all tested laminin isoforms”) read?
**A.** bound

**Q.** B2 was tested. Which “binding to all tested laminin isoforms” value did it give?
**A.** bound

**Q.** How did the “binding to all tested laminin isoforms” value turn out when B3 was run?
**A.** did not show binding

**Q.** Which “binding to all tested laminin isoforms” value does the source give for B4 here?
**A.** bound

**Q.** For B5, which “binding to all tested laminin isoforms” value is on record?
**A.** bound

**Q.** With B6 as the molecule, how does the “binding to all tested laminin isoforms” value read?
**A.** showed binding

**Q.** With B7 as the molecule, how does the “binding to all tested laminin isoforms” value read?
**A.** strong binding

**Q.** For B8, which “binding to all tested laminin isoforms” value is on record?
**A.** not

**Q.** For B9, which “binding to all tested laminin isoforms” value is on record?
**A.** did not

System: VEGF-A165
Assay: ELISA: VEGF-A165 binding to laminin LG domain / laminin peptide
Set-up: species or system human
Conditions: 1 µg/mL LG domain coated; 1 μg/mL GF; vs BSA-coated wells; n = 4
Protocol: ELISA tests were performed as described above. In brief, […] recombinant protein, laminin alpha 4 LG domain recombinant protein (R&D Systems), laminin alpha 5 LG domain recombinant protein (LD BioPharma), or laminin peptide (sequences are described in Supplementary Table 1, chemically synthesized by Genscript) in PBS for 2 h at 37 °C. A concentration of 1 μg/mL of BSA served as non-binding protein control. After blocking with 2% BSA PBS-0.05% Tween 20 (PBS-T) solution, 1 μg/mL of the recombinant human proteins (VEGF-A121, VEGF-A165, PlGF-1, PlGF-2, PDGF-BB, or FGF-2) or 10 μg/mL of biotinylated heparin (Sigma-Aldrich) were added. Bound GF was detected with biotinylated antibodies for human VEGF-A, PlGF, PDGF-BB (R&D Systems, Catalog No. DY220, 1:180 dilution), or FGF-2 (R&D Systems). The antibodies were detected by streptavidin-HRP (R&D Systems).

**Q.** Which “binding to VEGF-A165 (ELISA), recombinant LG domains” value does the source give for B10 here?
**A.** bound

**Q.** For B11, which “binding to VEGF-A165 (ELISA), recombinant LG domains” value is on record?
**A.** bound

System: VEGF-A121
Assay: ELISA: VEGF-A121 binding to laminin LG domain / laminin peptide
Set-up: species or system human
Conditions: 1 µg/mL LG domain coated; 1 μg/mL GF; vs BSA-coated wells; n = 4
Protocol: (§1) ELISA tests were performed as described above. In brief, ELISA plates were coated with 1 μg/mL of laminin alpha 3 LG domain recombinant protein, laminin alpha 4 LG domain recombinant protein (R&D Systems), laminin alpha 5 LG domain recombinant protein (LD BioPharma), or laminin peptide (sequences are described in Supplementary Table 1, chemically synthesized by Genscript) in PBS for 2 h at 37 °C. A concentration of 1 μg/mL of BSA served as non-binding protein control. After blocking with 2% BSA PBS-0.05% Tween 20 (PBS-T) solution, 1 μg/mL of the recombinant human proteins (VEGF-A121, VEGF-A165, PlGF-1, PlGF-2, PDGF-BB, or FGF-2) or 10 μg/mL of biotinylated heparin (Sigma-Aldrich) were added. Bound GF was detected with biotinylated antibodies for human VEGF-A, PlGF, PDGF-BB (R&D Systems, Catalog No. DY220, 1:180 dilution), or FGF-2 (R&D Systems). The antibodies were detected by streptavidin-HRP (R&D Systems).

**Q.** B10 was tested. Which “binding to VEGF-A121 (ELISA), recombinant LG domains” value did it give?
**A.** did not show any binding

**Q.** How did the “binding to VEGF-A121 (ELISA), recombinant LG domains” value turn out when B11 was run?
**A.** did not show any binding

System: PlGF-2
Assay: ELISA: PlGF-2 binding to laminin LG domain / laminin peptide
Set-up: species or system human
Conditions: 1 µg/mL LG domain coated; 1 μg/mL GF; vs BSA-coated wells; n = 4
Protocol: as §1

**Q.** For B10, which “binding to PlGF-2 (ELISA), recombinant LG domains” value is on record?
**A.** bound

**Q.** How did the “binding to PlGF-2 (ELISA), recombinant LG domains” value turn out when B11 was run?
**A.** bound

System: PlGF-1
Assay: ELISA: PlGF-1 binding to laminin LG domain / laminin peptide
Set-up: species or system human
Conditions: 1 µg/mL LG domain coated; 1 μg/mL GF; vs BSA-coated wells; n = 4
Protocol: as §1

**Q.** For B10, which “binding to PlGF-1 (ELISA), recombinant LG domains” value is on record?
**A.** did not show any binding

**Q.** With B11 as the molecule, how does the “binding to PlGF-1 (ELISA), recombinant LG domains” value read?
**A.** did not show any binding

System: PDGF-BB
Assay: ELISA: PDGF-BB binding to laminin LG domain / laminin peptide
Set-up: species or system human
Conditions: 1 µg/mL LG domain coated; 1 μg/mL GF; vs BSA-coated wells; n = 4
Protocol: as §1

**Q.** Which “binding to PDGF-BB (ELISA), recombinant LG domains” value does the source give for B10 here?
**A.** bound

**Q.** For B11, which “binding to PDGF-BB (ELISA), recombinant LG domains” value is on record?
**A.** bound

System: FGF-2
Assay: ELISA: FGF-2 binding to laminin LG domain / laminin peptide
Set-up: species or system human
Conditions: 1 µg/mL LG domain coated; 1 μg/mL GF; vs BSA-coated wells; n = 4
Protocol: as §1

**Q.** With B10 as the molecule, how does the “binding to FGF-2 (ELISA), recombinant LG domains” value read?
**A.** bound

**Q.** B11 was tested. Which “binding to FGF-2 (ELISA), recombinant LG domains” value did it give?
**A.** bound
